{"source": "paper PMC6606445", "about": "(Nature structural & molecular biology, 2018)", "key": {"[1]": {"target": "truncated SYCP1 αN-end (101-175) (human) (UniProt Q15431)", "experiment": "crystal structure"}, "[2]": {"target": "RecE-αN-tetramer (UniProt Q15431)", "experiment": "SEC-MALS"}, "[3]": {"target": "SYCP1 αN-end (101-206) (human) (UniProt Q15431)", "experiment": "crystal structure"}, "[4]": {"target": "the molecule itself", "experiment": "crystal structure"}, "[5]": {"target": "the molecule itself", "experiment": "SEC-MALS"}, "[6]": {"target": "the molecule itself", "experiment": "SEC-MALS", "remark": "listed apart in the source"}}, "data": [{"molecule": "truncated SYCP1 αN-end (101-175) (from UniProt Q15431 101-175) (domain or fragment)", "values": [{"measurement": "stoichiometry N", "setting": "[1]", "result": 4}]}, {"molecule": "RecE-αN-tetramer (from UniProt Q15431 206-362)", "values": [{"measurement": "stoichiometry N", "setting": "[2]", "result": 4}]}, {"molecule": "SYCP1 αN-end (101-206) (from UniProt Q15431 101-206) (domain or fragment)", "values": [{"measurement": "stoichiometry N", "setting": "[3]", "result": 4}]}, {"molecule": "SYCP1 αC-end (676-770) (domain or fragment) ENLLEEVEKAKVIADEAVKLQKEIDKRCQHKIAEMVALMEKHKHQYDKIIEERDSELGLYKSKEQEQSSLRASLEIELSNLKAELLSVKKQLEIE", "values": [{"measurement": "stoichiometry N", "setting": "[4]", "result": 4}]}, {"molecule": "SYCP1 αN-tetramer (206-362) (domain or fragment) ETRQVYMDLNNNIEKMITAFEELRVQAENSRLEMHFKLKEDYEKIQHLEQEYKKEINDKEKQVSLLLIQITEKENKMKDLTFLLEESRDKVNQLEEKTKLQSENLKQSIEKQHHLTKELEDIKVSLQRSVSTQKALEEDLQIATKTICQLTEEKETQ", "values": [{"measurement": "stoichiometry N", "setting": "[5]", "result": 4}]}, {"molecule": "SYCP1 αN (101-362) (domain or fragment) GLSRVYSKLYKEAEKIKKWKVSTEAELRQKESKLQENRKIIEAQRKAIQELQFGNEKVSLKLEEGIQENKDLIKENNATRHLCNLLKETCARSAEKTKKYEYEREETRQVYMDLNNNIEKMITAFEELRVQAENSRLEMHFKLKEDYEKIQHLEQEYKKEINDKEKQVSLLLIQITEKENKMKDLTFLLEESRDKVNQLEEKTKLQSENLKQSIEKQHHLTKELEDIKVSLQRSVSTQKALEEDLQIATKTICQLTEEKETQ", "values": [{"measurement": "binding result", "setting": "[5]", "result": "binds"}]}, {"molecule": "SYCP1 αC-end extended (676-783) L679A I688A (domain or fragment) ENLAEEVEKAKVAADEAVKLQKEIDKRCQHKIAEMVALMEKHKHQYDKIIEERDSELGLYKSKEQEQSSLRASLEIELSNLKAELLSVKKQLEIEREEKEKLKREAKE", "values": [{"measurement": "stoichiometry N", "setting": "[6]", "result": 2}]}, {"molecule": "SYCP1 αCore-ΔNtip (112-783) (domain or fragment) EAEKIKKWKVSTEAELRQKESKLQENRKIIEAQRKAIQELQFGNEKVSLKLEEGIQENKDLIKENNATRHLCNLLKETCARSAEKTKKYEYEREETRQVYMDLNNNIEKMITAFEELRVQAENSRLEMHFKLKEDYEKIQHLEQEYKKEINDKEKQVSLLLIQITEKENKMKDLTFLLEESRDKVNQLEEKTKLQSENLKQSIEKQHHLTKELEDIKVSLQRSVSTQKALEEDLQIATKTICQLTEEKETQMEESNKARAAHSFVVTEFETTVCSLEELLRTEQQRLEKNEDQLKILTMELQKKSSELEEMTKLTNNKEVELEELKKVLGEKETLLYENKQFEKIAEELKGTEQELIGLLQAREKEVHDLEIQLTAITTSEQYYSKEVKDLKTELENEKLKNTELTSHCNKLSLENKELTQETSDMTLELKNQQEDINNNKKQEERMLKQIENLQETETQLRNELEYVREELKQKRDEVKCKLDKSEENCNNLRKQVENKNKYIEELQQENKALKKKGTAESKQLNVYEIKVNKLELELESAKQKFGEITDTYQKEIEDKKISEENLLEEVEKAKVIADEAVKLQKEIDKRCQHKIAEMVALMEKHKHQYDKIIEERDSELGLYKSKEQEQSSLRASLEIELSNLKAELLSVKKQLEIEREEKEKLKREAKE", "values": [{"measurement": "stoichiometry N", "setting": "[5]", "result": 4}]}, {"molecule": "SYCP1 αCore (101-783) (domain or fragment) GLSRVYSKLYKEAEKIKKWKVSTEAELRQKESKLQENRKIIEAQRKAIQELQFGNEKVSLKLEEGIQENKDLIKENNATRHLCNLLKETCARSAEKTKKYEYEREETRQVYMDLNNNIEKMITAFEELRVQAENSRLEMHFKLKEDYEKIQHLEQEYKKEINDKEKQVSLLLIQITEKENKMKDLTFLLEESRDKVNQLEEKTKLQSENLKQSIEKQHHLTKELEDIKVSLQRSVSTQKALEEDLQIATKTICQLTEEKETQMEESNKARAAHSFVVTEFETTVCSLEELLRTEQQRLEKNEDQLKILTMELQKKSSELEEMTKLTNNKEVELEELKKVLGEKETLLYENKQFEKIAEELKGTEQELIGLLQAREKEVHDLEIQLTAITTSEQYYSKEVKDLKTELENEKLKNTELTSHCNKLSLENKELTQETSDMTLELKNQQEDINNNKKQEERMLKQIENLQETETQLRNELEYVREELKQKRDEVKCKLDKSEENCNNLRKQVENKNKYIEELQQENKALKKKGTAESKQLNVYEIKVNKLELELESAKQKFGEITDTYQKEIEDKKISEENLLEEVEKAKVIADEAVKLQKEIDKRCQHKIAEMVALMEKHKHQYDKIIEERDSELGLYKSKEQEQSSLRASLEIELSNLKAELLSVKKQLEIEREEKEKLKREAKE", "values": [{"measurement": "binding result", "setting": "[5]", "result": "binds"}]}, {"molecule": "GST-αC-dimer (domain or fragment) EKETQMEESNKARAAHSFVVTEFETTVCSLEELLRTEQQRLEKNEDQLKILTMELQKKSSELEEMTKLTNNKEVELEELKKVLGEKETLLYENKQFEKIAEELKGTEQELIGLLQAREKEVHDLEIQLTAITTSEQYYSKEVKDLKTELENEKLKNTELTSHCNKLSLENKELTQETSDMTLELKNQQEDINNNKKQEERMLKQIENLQETETQLRNELEYVREELKQKRDEVKCKLDKSEENCNNLRKQVENKNKYIEELQQENKALKKKGTAESKQLNVYEIKVNKLELELESAKQKFGEITDTYQKEIEDKKISEENLLEEVEKAKVIADEAVKLQKEIDKRCQHKIAEMVALMEKHKHQYDKIIEERDSELGLYKSKEQEQSSLRASLEIELSNLKAELLSVKKQLEIEREEKEKLKREAKE", "values": [{"measurement": "stoichiometry N", "setting": "[5]", "result": 2}]}, {"molecule": "SYCP1 αC-dimer (358-783) (domain or fragment) EKETQMEESNKARAAHSFVVTEFETTVCSLEELLRTEQQRLEKNEDQLKILTMELQKKSSELEEMTKLTNNKEVELEELKKVLGEKETLLYENKQFEKIAEELKGTEQELIGLLQAREKEVHDLEIQLTAITTSEQYYSKEVKDLKTELENEKLKNTELTSHCNKLSLENKELTQETSDMTLELKNQQEDINNNKKQEERMLKQIENLQETETQLRNELEYVREELKQKRDEVKCKLDKSEENCNNLRKQVENKNKYIEELQQENKALKKKGTAESKQLNVYEIKVNKLELELESAKQKFGEITDTYQKEIEDKKISEENLLEEVEKAKVIADEAVKLQKEIDKRCQHKIAEMVALMEKHKHQYDKIIEERDSELGLYKSKEQEQSSLRASLEIELSNLKAELLSVKKQLEIEREEKEKLKREAKE", "values": [{"measurement": "stoichiometry N", "setting": "[5]", "result": 2}]}]}
